Experimental data as given in IntAct's records for PubMed 21880730.

B1: Nectin-3 (Mus musculus), Q9JLB9 (parent)
chain: MARTPGPAPLCPGGGKAQLSSAFPPAAGLLLPAPTPPPLLLLLIPLLLFSRLCGALAGSIIVEPHVTAVWGKNVSLKCLIEVNETITQISWEKIHGKSTQTVAVHHPQYGFSVQGDYQGRVLFKNYSLNDATITLHNIGFSDSGKYICKAVTFPLGNAQSSTTVTVLVEPTVSLIKGPDSLIDGGNETVAAVCVAATGKPVAQIDWEGDLGEMESSTTSFPNETATIVSQYKLFPTRFARGRRITCVVKHPALEKDIRYSFILDIQYAPEVSVTGYDGNWFVGRKGVNLKCNADANPPPFKSVWSRLDGQWPDGLLASDNTLHFVHPLTVNYSGVYVCKVSNSLGQRSDQKVIYISDPPTTTTLQPTVQWHSSPADVQDIATEHKKLPFPLSTLATLKDDTIGTIIASVVGGALFLVLVSILAGVFCYRRRRTFRGDYFAKNYIPPSDMQKESQIDVLHQDELDSYPDSVKKENKNPVNNLIRKDYLEEPEKTQWNNVENLTRFERPMDYYEDLKMGMKFVSDERYNESEDGLVSHVDGSVISRREWYV

Variants of: B1
Settings: with afad_rat Afdn

| Variant | effect of a mutation on the interaction |
| --- | --- |
| MARTPGPAPLCPGGGKAQLSSAFPPAAGLLLPAPTPPPLLLLLIPLLLFSRLCGALAGSIIVEPHVTAVWGKNVSLKCLIEVNETITQISWEKIHGKSTQTVAVHHPQYGFSVQGDYQGRVLFKNYSLNDATITLHNIGFSDSGKYICKAVTLPLGNAQSSTTVTVLVEPTVSLIKGPDSLIDGGNETVAAVCVAATGKPVAQIDWEGDLGEMESSTTSFPNETATIVSQYKLFPTRFARGRRITCVVKHPALEKDIRYSFILDIQYAPEVSVTGYDGNWFVGRKGVNLKCNADANPPPFKSVWSRLDGQWPDGLLASDNTLHFVHPLTVNYSGVYVCKVSNSLGQRSDQKVIYISDPPTTTTLQPTVQWHSSPADVQDIATEHKKLPFPLSTLATLKDDTIGTIIASVVGGALFLVLVSILAGVFCYRRRRTFRGDYFAKNYIPPSDMQKESQIDVLHQDELDSYPDSVKKENKNPVNNLIRKDYLEEPEKTQWNNVENLTRFERPMDYYEDLKMGMKFVSDERYNESEDGLVSHVDGSVISRREWYV [F153L] | decreasing interaction |
